According to patent US9580460B2, “Discordant helix stabilization for prevention of amyloid formation” (AlphaBeta AB, priority 2000, dated 2017):

Key:
Aβ(1-40) [1] = target: T1, Aβ(1-40) (Homo sapiens, UniProt P05067); experiment: Time-dependent aggregation of Aβ(1-40), amount left in solution after 20,000 xg centrifugation; assay type: biochemical; conditions: in the presence of the peptide; Aβ(1-40) left in solution after 20,000 xg centrifugation
T1 construct: purchased Research Genetics, Huntsville, Ala., USA; host or cells: chemical synthesis
T1 sequence (P05067 672-711): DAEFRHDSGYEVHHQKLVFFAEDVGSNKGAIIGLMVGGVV
Excerpt: The effects of the peptides KAD, AAA, and KFFE (SEQ ID NO:1) on the time-dependent aggregation of Aβ(1-40), determined as the amount of Aβ(1-40) left in solution after 20,000 xg centrifugation, were studied. In the presence of AAA, Aβ(1-40) completely aggregated in 10-15 days. In the presence of KAD, Aβ(1-40) completely aggregated in 30-40 days. In the presence of KFFE (SEQ ID NO:1), Aβ(1-40) completely aggregated in about 3 days (FIG. 8).

Aβ(1-40) [2] = target: T1, Aβ(1-40); experiment: Fibril formation by Aβ(1-40) with tripeptide ligand, electron microscopy; assay type: biochemical; conditions: 100 μM Aβ(1-40), 1 mM ligand peptide, three days at 37° C., PBS pH 7.4, electron microscopy, semi quantitative
Experimental: (§1) Synthetic peptides corresponding to human Aβ fragments 1-40 (amino acid sequence […]; SEQ ID NO:3), 12-24. and 14-23 were purchased from Research Genetics, Huntsville, Ala., USA. Aβ(1-40) was purified by reverse-phase HPLC over a C18 column, using a linear gradient of acetonitrile running into 0.1% trifluoroacetic acid for elution. The purified peptide was lyophilized, stored at −20° C. and dissolved shortly before experiments. The tripeptides and tetrapeptides were synthesized and purified by reverse-phase HPLC (>70% purity) by Interactiva, Darmstadt, Germany
(§2) The relative abundance and morphology of fibrils was determined by electron microscopy after incubating each of the three Aβ peptides (100 μM) for three days at 37° C. in phosphate buffered saline (50 mM sodium phosphate/150 mM NaCl, pH 7.4) in the presence of 1 mM of a specific tripeptide or tetrapeptide ligand. Aggregates were collected by centrifugation at 20,000×g for 20 minutes. The pellets were suspended in a small volume of water by low-energy sonication for 5 seconds. Aliquots of 8 μl were placed on electron microscopy grids covered by a carbon-stabilized formvar film. Excess fluid was withdrawn after 30 seconds, and after air-drying the grids were negatively stained with 2% uranyl acetate in water. The stained grids were examined and photographed in a Philips CM120TWIN electron microscope operated at 80 kV. For a semi quantitative evaluation of the amount of material in the different specimens, the grids (50 mesh) were first scanned at low magnification and the number of larger fibril bundles per grid square estimated. The specimens were subsequently examined at high magnification to judge the size of the fibril bundles, the presence of smaller fibril aggregates, and the morphology of the individual fibrils.

[3] = conditions where Aβ(1-42) readily forms fibrils; Tjernberg et al. 1996, 1999; cited from earlier work
Aβ(14-23) = target: T2, Aβ(14-23) (Homo sapiens, UniProt P05067); experiment: Fibril formation by Aβ(14-23) with tripeptide or tetrapeptide ligand, electron microscopy; assay type: biochemical; conditions: for density of Aβ(14-23) fibrils (fibril formation): 100 μM Aβ(14-23), 1 mM ligand peptide, three days at 37° C., PBS pH 7.4, electron microscopy, semi quantitative; for reduction of Aβ fibrillation or aggregation: summary statement, Aβ peptide not specified (FIG. 7: Aβ(14-23))
T2 construct: 12-24. and 14-23 were purchased from Research Genetics; purchased Research Genetics, Huntsville, Ala., USA; host or cells: chemical synthesis
Experimental: as §1, §2

Aβ(1-40) [4] = target: T1, Aβ(1-40); experiment: Fibril morphology of Aβ(1-40) in the presence of peptides, electron microscopy; assay type: biochemical; conditions: in the presence of the peptide, compared with AAA or acetyl-AAA-amide
Experimental: as §2

[5] = Fibril formation of proteins with long discordant helices, electron microscopy of 20,000×g pellets; assay type: physicochemical; conditions: 10 μM to 100 μM in phosphate buffered saline pH 7.4, 37° C., three days
Excerpt: The proteins used in these experiments included SP-C (lung SP-C forms amyloid in pulmonary alveolar proteinosis) purified from porcine lungs (Curstedt et al, 1987, Eur. J. Biochem. 168:255-262). PolyVal→polyLeu substituted SP-C (SP-C(Leu)) analogue was synthesized as described by Nilsson et al. (1998, Eur. J. Biochem, 255:116-124) was used in the experiments as was D-analyl-D-alanine transpeptidase from Streptomyces R61 was obtained from Drs. Frére and Joris, University of Liege, Belgium (Frere et al, 1973, Biochem. J. 135:463-468). Triacylglycerol lipase from Candida antarctica and human coagulation factor XIII were purchased from Sigma. For these fibrillation studies the latter three proteins were dissolved in phosphate buffered saline, pH 7.4, in concentrations ranging from 10 μM to 100 μM. SP—C and SP-C (Leu) were dissolved at 100 μM or 250 μM in chloroform/methanol/0.1 M HCl, 32:64:5 (by volume).
To assay for the formation of fibrils, the protein solutions were incubated at 37° C. for three days, then centrifuged at 20,000×g for 20 minutes. The concentrations of SP-C and SP-C(Leu) in the supernatants were determined by amino acid analysis of triplicate samples. Peptide concentration at start of the incubations was 250 μM for SP-C(Leu) and 100 μM for SP-C. […]

Aβ(12-24) = target: T3, Aβ(12-24) (Homo sapiens, UniProt P05067); experiment: Fibril formation by Aβ(12-24) with tripeptide ligand, electron microscopy; assay type: biochemical; conditions: 100 μM Aβ(12-24), 1 mM ligand peptide, three days at 37° C., PBS pH 7.4, electron microscopy, semi quantitative
T3 construct: 12-24. and 14-23 were purchased from Research Genetics; purchased Research Genetics, Huntsville, Ala., USA; host or cells: chemical synthesis
Experimental: as §1
as §2, with “Excess fluid was withdrawn after 30 seconds, and after air-drying the grids were negatively stained with 2% uranyl acetate in water. The stained grids were examined and photographed in a Philips CM120TWIN electron microscope operated at 80 kV.” left out, “The specimens were subsequently examined at high magnification to judge the size of the fibril bundles, the presence of smaller fibril aggregates, and the morphology of the individual fibrils.” left out

| Substance | time until Aβ(1-40) completely aggregated (Aβ(1-40) [1]) | density of Aβ(1-40) fibrils (fibril formation) (Aβ(1-40) [2]) | density of Aβ(14-23) fibrils (fibril formation) (Aβ(14-23)) | also measured |
| --- | --- | --- | --- | --- |
| AAA | 10 to 15 days | no significant effect |  |  |
| acetyl-AAA-amide |  | no significant effect |  |  |
| unsubstituted Aβ(1-28): positions 1-28 of human Aβ |  |  |  | fibril formation of the Aβ analogue itself [3]: forms fibrils |
| KFD [dipolar tripeptide, central Ala of KAD replaced with Phe] |  |  | reduced Aβ(14-23) fibril formation, but to a lesser extent than KAD |  |
| KAAE (Synthetically generated peptide) [dipolar tetrapeptide KAAE] |  |  |  | reduction of Aβ fibrillation or aggregation (Aβ(14-23)): did not reduce |
| acetyl-KAD-amide (Ac-Lys-Ala-Asp-NH2) |  | equally efficient in reducing Aβ(1-40) fibril formation as the KAD peptide with free termini |  | morphology of Aβ(1-40) fibrillar structures (Aβ(1-40) [4]): much shorter and more dispersed |
| coagulation factor XIII: human coagulation factor XIII, purchased from Sigma |  |  |  | fibril formation of the protein itself [5]: form fibrils |
| KAD | 30 to 40 days | significant reduction of fibril density | significant reduction of fibril density | morphology of Aβ(1-40) fibrillar structures (Aβ(1-40) [4]): much shorter and more dispersed; density of Aβ(12-24) fibrils (fibril formation) (Aβ(12-24)): significant reduction of fibril density |
| Aβ(1-28) with alanine substitutions at positions 16, 17, and 20: Aβ(1-28) variant K16A, L17A, F20A (DAEFRHDSGYEVHHQAAVFAAEDVGSNK; Amyloid-beta protein 42; UniProt P05067 672-699, looked up, variant K16A L17A F20A) |  |  |  | fibril formation of the Aβ analogue itself [3]: does not form fibrils |
| KFFE (Synthetically generated peptide) [dipolar tetrapeptide KFFE] | about 3 days |  | slightly promote fibril formation | reduction of Aβ fibrillation or aggregation (Aβ(14-23)): did not reduce |
